In one assay the target is HLA-C*12:03. The experiment in a line: IEDB peptide-MHC binding, purified MHC/direct/fluorescence; filed as Kd, often an IC50 or EC50 that approximates it; ≥ and ≤ were set here for values at or beyond the usual limits of such assays.
A further assay has as its target HLA-B*08:01. Described as above. Particulars: source organism: Mycobacterium tuberculosis C.
In the next assay the target is HLA-B*48:01. The assay is described as above.
The next assay has as its target HLA-A*01:01. Described as above.
The target of assay [1] is HLA-A*29:02. The assay is described as above. Particulars: source organism: Mycobacterium tuberculosis C.
Assay [2] concerns the target HLA-A*03:01. The description is as above.
Assay [3] has as its target HLA-B*46:01. The assay is described as above.
The next assay concerns the target HLA-B*58:01. Described as above.
Assay [4] concerns the target HLA-A*02:01. The assay is described as above. Particulars: source organism: Mycobacterium tuberculosis C.
In another assay the target is HLA-B*44:02. The description is as above. Particulars: source organism: Mycobacterium tuberculosis C.
Another assay deals with HLA-A*31:01. The description is as above.
Assay [5] concerns the target HLA-B*57:01. Described as above.
In the next assay the target is HLA-B*27:05. The description is as above.
A further assay has as its target HLA-B*40:01. The assay is described as above.
For a further assay, the target named is HLA-A*11:01. The description is as above.
The target in assay [6] is HLA-B*15:01. The assay is described as above.
Another assay concerns the target HLA-C*05:01. The assay is described as above.
Another assay has as its target HLA-B*45:06. Kind of assay: IEDB peptide-MHC binding, purified MHC/competitive/fluorescence; filed as Kd, often an IC50 or EC50 that approximates it; ≥ and ≤ were set here for values at or beyond the usual limits of such assays. Particulars: source organism: Mycobacterium tuberculosis H37Ra.
The next assay concerns the target HLA-B*83:01. The description is as above. Particulars: source organism: Mycobacterium tuberculosis H37Ra.
The next assay deals with HLA-B*51:01. The description is as above. The conditions noted are these: source organism: Mycobacterium tuberculosis H37Ra.
A further assay has as its target HLA-B*15:42. The description is as above. Particulars: source organism: Mycobacterium tuberculosis H37Ra.
Assay [7] has as its target HLA-B*39:01. Kind of assay: IEDB peptide-MHC binding, purified MHC/direct/fluorescence; filed as Kd, often an IC50 or EC50 that approximates it; ≥ and ≤ were set here for values at or beyond the usual limits of such assays. The conditions noted are these: source organism: Bacillus anthracis str. A0465.
The target of assay [8] is HLA-A*69:01. The description is as above. Particulars: source organism: Bacillus anthracis.
The next assay has as its target HLA-B*15:17. Described as above. The conditions noted are these: source organism: Bacillus anthracis.
For a further assay, the target named is HLA-B*08:02. Described as above. The conditions noted are these: source organism: Bacillus anthracis str. A0465.
For assay [9], the target named is HLA-A*02:01. The experiment in a line: IEDB peptide-MHC binding, purified MHC/competitive/fluorescence; filed as Kd, often an IC50 or EC50 that approximates it; ≥ and ≤ were set here for values at or beyond the usual limits of such assays.
The next assay deals with HLA-A*02:06. The assay is described as above. Particulars: source organism: Bacillus cereus.
The target of a further assay is HLA-A*02:12. Described as above. The conditions noted are these: source organism: Entamoeba histolytica.
The next assay concerns the target HLA-A*68:02. Described as above. The conditions noted are these: source organism: Entamoeba histolytica.
In assay [10] the target is HLA-B*39:01. The description is as above. The conditions noted are these: source organism: Entamoeba histolytica.
Assay [11] concerns the target HLA-A*29:02. The assay is described as above. Particulars: source organism: Entamoeba histolytica.
The target in assay [12] is HLA-A*03:01. The assay is described as above. Particulars: source organism: Entamoeba histolytica.
In assay [13] the target is HLA-B*46:01. The description is as above. The conditions noted are these: source organism: Entamoeba histolytica.
Assay [14] addresses HLA-A*26:01. The assay is described as above. Particulars: source organism: Entamoeba histolytica.
A further assay has as its target HLA-A*02:11. The description is as above. The conditions noted are these: source organism: Entamoeba histolytica.
Assay [15] has as its target HLA-B*57:01. The assay is described as above. Particulars: source organism: Entamoeba histolytica.
For assay [16], the target named is HLA-A*69:01. The assay is described as above. Particulars: source organism: Entamoeba histolytica.
The next assay addresses HLA-A*02:19. The description is as above. Particulars: source organism: Entamoeba histolytica.
The target of the next assay is HLA-B*27:03. The assay is described as above. Particulars: source organism: Entamoeba histolytica.
The target in the next assay is HLA-A*02:16. Described as above. Particulars: source organism: Entamoeba histolytica.
In the next assay the target is HLA-A*02:03. The description is as above. Particulars: source organism: Entamoeba histolytica.
For assay [17], the target named is HLA-B*15:01. The description is as above. The conditions noted are these: source organism: Entamoeba histolytica.
For assay [18], the target named is HLA-A*26:01. The experiment in a line: IEDB peptide-MHC binding, purified MHC/direct/fluorescence; filed as Kd, often an IC50 or EC50 that approximates it; ≥ and ≤ were set here for values at or beyond the usual limits of such assays. Particulars: source organism: Mycobacterium tuberculosis variant bovis.
The target of a further assay is HLA-C*15:02. Described as above. The conditions noted are these: source organism: Mycobacterium tuberculosis variant bovis.
Where [19] appears, read: source organism: Mycobacterium tuberculosis C.
[20] abbreviates: source organism: Bacillus anthracis.
Where [21] appears, read: source organism: Bacillus cereus.
Where [22] appears, read: source organism: Entamoeba histolytica.
[23] abbreviates: source organism: Mycobacterium tuberculosis variant bovis.

By Kd is commonly meant the constant that tells how readily two partners part at equilibrium. Turning to AMAGNPVVI, the Kd with HLA-C*12:03 (source organism: Leishmania donovani) was 727 nM.
As to FPRYPLNVL, the equilibrium dissociation constant (Kd) was 1040 nM with HLA-B*08:01; no less than 20 µM with HLA-B*48:01 (setting [19]); no less than 20000 nM with HLA-A*01:01 (setting [19]); no less than 20 µM with HLA-A*29:02 [1]; no less than 20 µM in the assay with HLA-A*03:01 [2] (setting [19]); no less than 20 µM in the assay with HLA-B*46:01 [3] (setting [19]). In addition, the Kd in the assay with HLA-B*58:01 (setting [19]), with HLA-A*02:01 [4], with HLA-B*44:02, in the assay with HLA-A*31:01 (setting [19]), with HLA-B*57:01 [5] (setting [19]) and in the assay with HLA-B*27:05 (setting [19]) was no less than 20 µM each time. Moreover, the Kd in the assay with HLA-B*40:01 (setting [19]) is no less than 20 µM; with HLA-A*11:01 (setting [19]), no less than 20 µM; in the assay with HLA-B*15:01 [6] (setting [19]), no less than 20 µM; with HLA-C*05:01 (source organism: Mycobacterium tuberculosis H37Ra), no less than 20000 nM; with HLA-B*45:06, no less than 5 µM; with HLA-B*83:01 it was 2650 nM. The Kd is no less than 20 µM in the assay with HLA-B*51:01 and no less than 5 µM in the assay with HLA-B*15:42.
In the case of MSDIFASEV, the Kd in the assay with HLA-B*48:01 (setting [20]) is no less than 20 µM; in the assay with HLA-B*39:01 [7], 467 nM; with HLA-A*01:01 (setting [20]) it was 7.3 nM; in the assay with HLA-A*03:01 [2] (setting [20]), no less than 20 µM; in the assay with HLA-B*46:01 [3] (setting [20]) it was no less than 20 µM; with HLA-B*58:01 (setting [20]), no less than 20 µM. Besides, the Kd with HLA-A*31:01 (setting [20]) is no less than 20 µM; in the assay with HLA-B*57:01 [5] (setting [20]), no less than 20 µM; in the assay with HLA-A*69:01 [8], no more than 1 nM; with HLA-B*27:05 (setting [20]) it was no less than 20 µM; with HLA-B*40:01 (setting [20]), no less than 20 µM; with HLA-B*15:17, 2.1 nM. For the same sequence, the Kd is no less than 20 µM in the assay with HLA-A*11:01 (setting [20]); no less than 20 µM with HLA-B*08:02; no less than 20 µM with HLA-B*15:01 [6] (setting [20]); no more than 1 nM in the assay with HLA-C*05:01 (setting [21]); 30.2 nM with HLA-A*02:01 [9] (setting [21]); 12.1 nM in the assay with HLA-A*02:06.
As to RASHFRKLF, the Kd in the assay with HLA-C*12:03 (setting [22]) is 19 nM; in the assay with HLA-A*02:12, no less than 20 µM; in the assay with HLA-A*68:02, no less than 20 µM; in the assay with HLA-B*39:01 [10], no less than 20 µM; in the assay with HLA-A*29:02 [11], no less than 20 µM; in the assay with HLA-A*03:01 [12] it was no less than 20 µM. The Kd in the assay with HLA-B*46:01 [13] was no less than 20 µM; with HLA-A*26:01 [14], no less than 20 µM; with HLA-A*02:01 [9] (setting [22]), no less than 20000 nM; in the assay with HLA-A*02:11, no less than 20 µM; with HLA-B*57:01 [15], 165 nM; with HLA-A*69:01 [16], no less than 20 µM. Moreover, the Kd with HLA-A*02:19, in the assay with HLA-B*27:03, with HLA-A*02:16, with HLA-A*02:03 and in the assay with HLA-B*15:01 [17] was no less than 20 µM in each case.
Consider VTNDGVIFF, for which the Kd is 1090 nM in the assay with HLA-A*26:01 [18], no less than 20 µM with HLA-C*15:02, 319 nM in the assay with HLA-C*12:03 (setting [23]) and 3 nM with HLA-C*05:01 (setting [23]).

For the origin of these results see the Immune Epitope Database (IEDB).
